Data on 4 molecules can be found in US20110301098A1, “TREATMENT FOR INTIMAL HYPERPLASIA AND RELATED CONDITIONS” (priority 2006, published 2011).

In series [1] the target is T1, C5a receptor (Mus musculus, UniProt P30993).
T1 sequence (P30993 1-351): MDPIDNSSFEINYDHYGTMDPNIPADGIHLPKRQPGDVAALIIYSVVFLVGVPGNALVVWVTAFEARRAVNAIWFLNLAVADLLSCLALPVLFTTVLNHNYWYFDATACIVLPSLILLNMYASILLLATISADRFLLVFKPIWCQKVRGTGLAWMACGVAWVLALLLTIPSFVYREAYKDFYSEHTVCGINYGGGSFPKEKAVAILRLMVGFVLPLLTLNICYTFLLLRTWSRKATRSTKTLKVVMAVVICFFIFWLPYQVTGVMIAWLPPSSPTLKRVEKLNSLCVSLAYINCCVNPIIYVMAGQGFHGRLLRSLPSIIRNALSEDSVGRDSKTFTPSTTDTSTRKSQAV
In words: C5a receptor antagonist treatment in the ApoE-/- mouse vein graft model.
Procedure: (§1) Male ApoE^−/− mice, aged between 12 and 16 weeks, were used for all experiments. Mice were fed a standard chow diet, and received water and food ad libitum. Before surgery, mice were anesthetized by an intra-peritoneal injection with Midazolam (5 mg/kg, Roche), Medetomidine (0.5 mg/kg, Orion) and Fentanyl (0.05 mg/kg, Janssen). Cholesterol levels in serum were determined at the time of sacrifice.
(§2) Briefly, caval veins were harvested from genetically identical donor mice, and were preserved before implantation at 4° C. in 0.9% NaCl containing 100 U/ml of heparin. In the graft recipient, the right carotid artery was dissected and cut in the middle. A polyethylene cuff was placed at both ends of the artery. The artery was everted around the cuff and ligated with a silk 8.0 suture. The caval vein was sleeved over the two cuffs and ligated. Successful engraftment was confirmed by the presence of pulsations and turbulent blood flow within the vein graft. The whole procedure usually takes about 30 minutes.
(§3) Cross-sections of vein grafts were stained with hematoxylin-phloxine-saffron, using conventional methods. The intimal hyperplasia surface of the thickened vein grafts was measured using image analysis software (Qwin, Leica). For each vein graft, six equally spaced cross-sections were used to determine the degree of vessel wall thickening.
(§4) To identify macrophages and macrophage-derived foam cells, immunohistochemistry was performed using AIA31240 primary antibodies against mouse macrophages (1:3000, Accurate Chemical). The contribution of macrophages and foam cells to the intimal hyperplasia was measured by computer-assisted analysis (Qwin, Leica) as the area stained with antibody AIA31240, and expressed as a percentage of the total intimal hyperplasia surface.
(§5) In order to inhibit C5a function, 21 mice were randomly divided in to three groups, and were treated with the cyclic peptide C5a antagonists AcF-[OP-(D-Cha)WR] (AcF) or hydrocinnamate-[OP-(D-Cha)WR] (HC). […]

Series [2] addresses T1, C5a receptor. The conditions noted are these: in vivo.
Procedure: as §1, §2, §3, §4, §5
Series [3] relates to PDGF receptor. The conditions noted are these: pretreatment of the vein grafts; cited from earlier work.
Series [4] concerns vein grafts. In words: Recombinant C5a applied to vein grafts in hypercholesterolaemic ApoE-/- mice. In kind it is in vivo, mouse. The note with it: for intimal hyperplasia surface: control 0.24±0.02; for macrophage/foam cell content of intimal hyperplasia: control 17±2%. The procedure: 153: 1301-1310. […] The whole procedure usually takes about 30 minutes.
To examine the involvement of C5a in the development of vein graft thickening, we applied recombinant C5a in two concentrations (0.5 μg and 5 μg, dissolved in 100 μl 20% Pluronic gel, n=7 per group,) directly to the vein graft at the time of surgery. In the control group 100 μl of 20% Pluronic gel without C5a was applied.
Twenty-one mice were randomly divided into three groups. In the treatment groups, either 0.5 μg or 5 μg of E. coli-derived recombinant mouse C5a (HyCult Biotechnology) was dissolved in 0.1 ml of 20% Pluronic gel, and applied around the venous interposition at the time of surgery. In the control group 0.1 ml of 20% Pluronic gel was applied without C5a. Mice were sacrificed after 28 days.

Like-named read-outs stand apart in the source and are kept apart here. Positions of bridges follow the written chain, without caps; N, C: chain ends. Non-standard residues stand in square brackets, D forms with d. Residues, ends and D or L forms follow the SMILES beside them. *: point of attachment. Hydrocinnamoyl = O=C(CCc1ccccc1)*; dCha = N[C@H](CC1CCCCC1)C(=O)O; Orn = NCCC[C@H](N)C(=O)O

Regarding `CC(=O)N[C@@H](Cc1ccccc1)C(=O)N[C@H]1CCCNC(=O)[C@H](CCCNC(=N)N)NC(=O)[C@H](Cc2c[nH]c3ccccc23)NC(=O)[C@@H](CC2CCCCC2)NC(=O)[C@@H]2CCCN2C1=O` [AcF, AcF-[OP-(D-Cha)WR]], the “decrease in vein graft thickening compared to control mice” value in series [1] (3 mg/kg/day s.c., 28 days after surgery) is on record as 53%. Besides, the “body weight or serum cholesterol” value in series [1] (between the different treatment groups) is listed as “No differences”.
As to `N=C(N)NCCC[C@@H]1NC(=O)[C@H](Cc2c[nH]c3ccccc23)NC(=O)[C@@H](CC2CCCCC2)NC(=O)[C@@H]2CCCN2C(=O)[C@@H](NC(=O)CCc2ccccc2)CCCNC1=O` [HC, hydrocinnamate-[OP-(D-Cha)WR]] (Hydrocinnamoyl-[Orn]P[dCha]WR; lactam 1-C), the “body weight or serum cholesterol” value in series [2] is recorded as “No differences”.
As to `Cc1ccc(C(=O)Nc2ccc(S(=O)(=O)O)c3cc(S(=O)(=O)O)cc(S(=O)(=O)O)c23)cc1NC(=O)c1cccc(NC(=O)Nc2cccc(C(=O)Nc3cc(C(=O)Nc4ccc(S(=O)(=O)O)c5cc(S(=O)(=O)O)cc(S(=O)(=O)O)c45)ccc3C)c2)c1` [Suramin], the neointimal hyperplasia entry in series [3] is “significant reduction”.

B1: C5a: E. coli-derived recombinant mouse C5a (HyCult Biotechnology) (protein, UniProt P06684 679-755, looked up)
C5a anaphylatoxin: NLHLLRQKIEEQAAKYKHSVPKKCCYDGARVNFYETCEERVARVTIGPLCIRAFNECCTIANKIRKESPHKPVQLGR
modifications: C5a anaphylatoxin
Take B1: the intimal hyperplasia surface in series [4] (0.5 μg C5a in 20% Pluronic gel applied to vein graft at surgery, 28 days) was 0.29±0.03 mm^2; in series [4] (5 μg C5a in 20% Pluronic gel applied to vein graft at surgery, 28 days), 0.41±0.04 mm^2. Also, the “macrophage/foam cell content of intimal hyperplasia” value came to 22±3% in series [4] (0.5 μg C5a, 28 days) and 33±2% in series [4] (5 μg C5a, 28 days). Moreover, the “body weight and serum cholesterol” value in series [4] (0.5 μg and 5 μg C5a vs control) was “did not differ”. In addition, the luminal area result in series [4] (0.5 μg and 5 μg C5a vs control, 28 days) is given as “No significant differences”.
